Tested on: eighteen amino acid peptide containing the amino acid sequence PLGIA, covalently labeled with the same fluorophore near each end (HES structure)

Chain of matrix metalloprotease -9 (MMP-9) (chain, as listed by the source): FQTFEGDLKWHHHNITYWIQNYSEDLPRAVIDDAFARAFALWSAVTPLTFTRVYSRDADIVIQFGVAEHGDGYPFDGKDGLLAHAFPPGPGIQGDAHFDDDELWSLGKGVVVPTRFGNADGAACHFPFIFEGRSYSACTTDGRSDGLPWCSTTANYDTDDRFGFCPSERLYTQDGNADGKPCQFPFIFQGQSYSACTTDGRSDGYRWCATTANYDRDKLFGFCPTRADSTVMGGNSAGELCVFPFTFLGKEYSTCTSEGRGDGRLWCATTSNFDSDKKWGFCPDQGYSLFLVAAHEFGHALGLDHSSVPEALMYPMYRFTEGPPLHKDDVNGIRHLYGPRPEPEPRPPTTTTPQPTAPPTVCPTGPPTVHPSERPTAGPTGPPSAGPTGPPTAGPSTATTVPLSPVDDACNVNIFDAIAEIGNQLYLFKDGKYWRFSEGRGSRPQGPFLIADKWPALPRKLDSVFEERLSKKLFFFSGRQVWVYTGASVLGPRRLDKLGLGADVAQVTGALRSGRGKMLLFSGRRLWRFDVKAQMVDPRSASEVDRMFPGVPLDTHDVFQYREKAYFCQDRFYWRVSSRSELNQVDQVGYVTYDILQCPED

matrix metalloprotease -9 (MMP-9)
HPLC retention time (C18, reverse phase): After exposure to MMP-9, the major peaks were at ca. 30 and 31 minutes with the almost complete disappearance of the 38 minute peak
cleavage of the peptide: The PLGIA sequence was recognized by matrix metalloprotease -9 (MMP-9) and is cleaved between the LG and the IA

Reference: patent publication US20230201361
